Source: patent US20040006018A1 (Genentech, published 2004)

How the values were obtained:
[1] = molecular target: T1, Human LIF receptor on human Hela cells (human, UniProt P42702 45-1097); experiment: conditioned medium competing for 125I-human LIF binding to Hela cells
T1 construct: whole, on cells; Endogenous receptor on cells; other subunits (gp130) not examined on these cells
T1 sequence (looked up): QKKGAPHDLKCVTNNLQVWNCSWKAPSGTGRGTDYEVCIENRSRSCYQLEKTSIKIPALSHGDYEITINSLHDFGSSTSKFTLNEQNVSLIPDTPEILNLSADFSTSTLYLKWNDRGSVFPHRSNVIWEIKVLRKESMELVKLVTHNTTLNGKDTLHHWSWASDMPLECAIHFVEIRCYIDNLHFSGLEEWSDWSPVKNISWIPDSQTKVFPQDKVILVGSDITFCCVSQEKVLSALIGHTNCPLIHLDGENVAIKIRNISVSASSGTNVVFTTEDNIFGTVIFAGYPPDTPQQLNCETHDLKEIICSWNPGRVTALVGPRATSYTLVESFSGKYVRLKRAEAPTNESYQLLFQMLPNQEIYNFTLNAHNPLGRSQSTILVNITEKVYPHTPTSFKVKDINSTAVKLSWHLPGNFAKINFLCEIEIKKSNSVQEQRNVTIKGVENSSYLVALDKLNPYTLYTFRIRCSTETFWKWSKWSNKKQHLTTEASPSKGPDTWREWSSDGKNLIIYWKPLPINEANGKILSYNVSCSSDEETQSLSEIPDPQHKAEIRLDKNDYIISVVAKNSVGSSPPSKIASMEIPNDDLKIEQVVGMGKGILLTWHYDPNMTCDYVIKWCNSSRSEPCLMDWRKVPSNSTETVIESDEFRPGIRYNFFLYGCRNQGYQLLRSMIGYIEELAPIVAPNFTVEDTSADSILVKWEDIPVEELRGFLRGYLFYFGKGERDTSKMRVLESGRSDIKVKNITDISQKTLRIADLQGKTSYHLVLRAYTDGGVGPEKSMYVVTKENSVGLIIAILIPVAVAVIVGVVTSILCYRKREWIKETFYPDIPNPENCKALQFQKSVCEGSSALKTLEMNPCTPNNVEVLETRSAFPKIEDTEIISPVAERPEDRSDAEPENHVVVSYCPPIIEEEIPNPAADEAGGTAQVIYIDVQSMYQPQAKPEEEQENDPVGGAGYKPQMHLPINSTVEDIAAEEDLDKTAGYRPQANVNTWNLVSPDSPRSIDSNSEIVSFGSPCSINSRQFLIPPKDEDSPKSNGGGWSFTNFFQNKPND

[2] = molecular target: T2, OSM specific receptor (oncostatin M receptor) on human WI-26 VA4 cells (human, UniProt Q99650 28-979); experiment: competition for 125I-human OSM binding to WI-26 VA4 cells
T2 construct: whole, on cells; Endogenous receptor on cells; further subunits not described for this assay; also called specific OSM Receptor; WI-26 cells
T2 sequence (looked up): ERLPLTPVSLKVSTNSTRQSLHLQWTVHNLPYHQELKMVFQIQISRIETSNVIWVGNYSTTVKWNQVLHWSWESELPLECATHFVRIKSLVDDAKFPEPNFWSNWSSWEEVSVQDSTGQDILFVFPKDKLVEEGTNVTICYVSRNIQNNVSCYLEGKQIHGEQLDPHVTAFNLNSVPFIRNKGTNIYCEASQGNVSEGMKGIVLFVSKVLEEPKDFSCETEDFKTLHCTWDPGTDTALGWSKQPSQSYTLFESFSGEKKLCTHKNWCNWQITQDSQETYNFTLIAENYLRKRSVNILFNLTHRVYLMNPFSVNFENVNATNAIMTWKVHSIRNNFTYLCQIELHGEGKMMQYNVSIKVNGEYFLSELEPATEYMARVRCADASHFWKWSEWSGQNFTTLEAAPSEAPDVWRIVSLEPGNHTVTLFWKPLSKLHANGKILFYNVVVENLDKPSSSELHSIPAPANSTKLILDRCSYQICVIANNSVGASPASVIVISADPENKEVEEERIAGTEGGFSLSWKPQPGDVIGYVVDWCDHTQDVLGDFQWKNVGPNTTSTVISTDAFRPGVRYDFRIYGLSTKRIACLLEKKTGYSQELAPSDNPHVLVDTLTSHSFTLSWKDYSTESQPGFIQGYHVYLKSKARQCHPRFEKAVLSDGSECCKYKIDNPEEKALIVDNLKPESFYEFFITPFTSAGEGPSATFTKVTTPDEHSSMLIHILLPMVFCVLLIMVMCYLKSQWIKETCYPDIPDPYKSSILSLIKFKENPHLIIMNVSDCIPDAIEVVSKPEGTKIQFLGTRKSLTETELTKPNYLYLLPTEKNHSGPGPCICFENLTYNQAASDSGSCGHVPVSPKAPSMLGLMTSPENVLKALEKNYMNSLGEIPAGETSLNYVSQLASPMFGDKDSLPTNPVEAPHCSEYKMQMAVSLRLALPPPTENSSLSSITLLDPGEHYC

[3] = molecular target: T3, Mouse LIF receptor on mouse M1 cells (LIF receptor complex with gp130) (mouse, UniProt P42703 44-1092; Q00560 23-917); experiment: conditioned medium competing for 125I-human LIF binding to M1 cells
T3 construct: whole, on cells; Endogenous receptor on M1 cells; also called LIFRβ
T3 sequence (Q00560 23-917, one chain of several): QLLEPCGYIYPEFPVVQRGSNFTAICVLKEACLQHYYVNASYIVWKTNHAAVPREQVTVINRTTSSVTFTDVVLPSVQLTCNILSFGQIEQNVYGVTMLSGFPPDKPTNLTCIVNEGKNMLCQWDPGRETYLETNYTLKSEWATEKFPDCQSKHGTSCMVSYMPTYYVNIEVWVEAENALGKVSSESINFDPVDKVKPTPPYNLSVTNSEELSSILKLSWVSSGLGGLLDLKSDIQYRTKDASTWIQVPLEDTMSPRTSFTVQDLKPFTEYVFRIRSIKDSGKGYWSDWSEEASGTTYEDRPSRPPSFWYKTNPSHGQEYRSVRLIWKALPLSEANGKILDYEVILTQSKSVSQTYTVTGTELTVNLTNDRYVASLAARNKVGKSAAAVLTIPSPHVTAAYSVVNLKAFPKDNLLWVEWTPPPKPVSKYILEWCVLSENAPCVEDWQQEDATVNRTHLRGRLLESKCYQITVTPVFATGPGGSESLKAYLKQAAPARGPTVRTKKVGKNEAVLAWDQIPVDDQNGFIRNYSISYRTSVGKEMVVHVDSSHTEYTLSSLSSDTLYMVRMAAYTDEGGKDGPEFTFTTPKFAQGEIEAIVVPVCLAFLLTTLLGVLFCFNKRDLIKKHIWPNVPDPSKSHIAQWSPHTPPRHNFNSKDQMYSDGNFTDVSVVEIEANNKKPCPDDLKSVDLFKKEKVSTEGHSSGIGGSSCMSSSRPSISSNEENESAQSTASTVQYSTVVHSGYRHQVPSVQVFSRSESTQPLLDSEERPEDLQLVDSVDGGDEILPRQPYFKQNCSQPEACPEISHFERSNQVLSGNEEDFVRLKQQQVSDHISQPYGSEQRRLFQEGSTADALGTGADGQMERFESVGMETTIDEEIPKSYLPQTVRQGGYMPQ

B1: Human CT-1 (conditioned medium from human 293 cells transfected with pRK5.hu.CT1) (ligand)
chain: MSRREGSLEDPQTDSSVSLLPHLEAKIRQTHSLAHLLTKYAEQLLQEYVQLQGDPFGLPSFSPPRLPVAGLSAPAPSHAGLPVHERLRLDAAALAALPPLLDAVCRRQAELNPRAPRLLRRLEDAARQARALGAAVEALLAALGAANRGPRAEPPAATASAASATGVFPAKVLGLRVCGLYREWLSRTEGDLGQLLPGGSA
notes: Not purified: tested as clarified conditioned medium (concentrated 10 fold and added at a 3-fold dilution for Hela cells; unconcentrated for WI-26 cells); also called human cardiotrophin-1; hCT-1
binding result [1]: binds
binding result [2]: no binding
binding result [3]: binds
